Molecular target: Rep68 wt (Adeno-associated virus 2 (AAV2), UniProt P03132 1-536)
Assay: fluorescence anisotropy

Chain of Rep68 wt (P03132 whole entry): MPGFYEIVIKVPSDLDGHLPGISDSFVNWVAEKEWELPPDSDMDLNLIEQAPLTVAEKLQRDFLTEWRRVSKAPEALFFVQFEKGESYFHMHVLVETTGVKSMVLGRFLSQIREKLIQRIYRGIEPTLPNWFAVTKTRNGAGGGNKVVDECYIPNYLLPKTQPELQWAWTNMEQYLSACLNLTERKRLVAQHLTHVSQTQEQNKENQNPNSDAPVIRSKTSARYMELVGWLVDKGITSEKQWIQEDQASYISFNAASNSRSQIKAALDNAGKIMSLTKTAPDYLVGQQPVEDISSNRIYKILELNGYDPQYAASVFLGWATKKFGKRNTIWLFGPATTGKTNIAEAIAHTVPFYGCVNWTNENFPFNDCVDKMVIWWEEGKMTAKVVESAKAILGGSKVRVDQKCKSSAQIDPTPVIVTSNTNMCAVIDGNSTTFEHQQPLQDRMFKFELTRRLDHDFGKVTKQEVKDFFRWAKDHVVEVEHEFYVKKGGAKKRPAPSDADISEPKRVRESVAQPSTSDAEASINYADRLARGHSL

B1: 41-mer AAVS1 RBS DNA (dsDNA)
DNA 1: TGGCGGCGGTTGGGGCTCGGCGCTCGCTCGCTCGCTGGGCG
DNA 2: CGCCCAGCGAGCGAGCGAGCGCCGAGCCCCAACCGCCGCCA
B1: binds.

From PMC4636433
